Assay results from the supplement of paper PMC11316812.
± gives the standard deviation of the averaged measurements.

Columns and labels:
MCF7 = assay: percentage of EdU-negative (G0-arrested) nuclei per well, 72 h; higher = more G0 arrest; details: reference: sequence is the full UniProt precursor, the tested protein was the secreted form or ectodomain
hTERT-HMEC = assay: as above; details: reference: sequence is the full UniProt precursor, the tested protein was the secreted form or ectodomain
[1] = protein concentration 0.01075 µM
[2] = protein concentration 0.1075 µM
[3] = protein concentration 0.03125 µM
[4] = protein concentration 0.3125 µM
[5] = protein concentration 0.0357143 µM
[6] = protein concentration 0.357143 µM
[7] = protein concentration 0.0217725 µM
[8] = protein concentration 0.217725 µM
[9] = protein concentration 0.0225 µM
[10] = protein concentration 0.02588 µM
[11] = protein concentration 0.2588 µM
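Note: secreted proteins added to cultured cells, EdU pulse at the end, nuclei found by Hoechst imaging, EdU status from nuclear versus surrounding ring intensity ratio, PBS as neutral control.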

Sequence	percentage of EdU-negative (MCF7; [3]) [%]	percentage of EdU-negative (MCF7; [4]) [%]	percentage of EdU-negative (hTERT-HMEC; [3]) [%]	percentage of EdU-negative (hTERT-HMEC; [4]) [%]	percentage of EdU-negative (MCF7; [9]) [%]	percentage of EdU-negative (MCF7; protein concentration 0.225 µM) [%]	percentage of EdU-negative (hTERT-HMEC; [9]) [%]	percentage of EdU-negative (hTERT-HMEC; protein concentration 0.225 µM) [%]	further results
MEKMLAGCFLLILGQIVLLPAEARERSRGRSISRGRHARTHPQTALLESSCENKRADLVFIIDSSRSVNTHDYAKVKEFIVDILQFLDIGPDVTRVGLLQYGSTVKNEFSLKTFKRKSEVERAVKRMRHLSTGTMTGLAIQYALNIAFSEAEGARPLRENVPRVIMIVTDGRPQDSVAEVAAKARDTGILIFAIGVGQVDFNTLKSIGSEPHEDHVFLVANFSQIETLTSVFQKKLCTAHMCSTLEHNCAHFCINIPGSYVCRCKQGYILNSDQTTCRIQDLCAMEDHNCEQLCVNVPGSFVCQCYSGYALAEDGKRCVAVDYCASENHGCEHECVNADGSYLCQCHEGFALNPDKKTCTKIDYCASSNHGCQHECVNTDDSYSCHCLKGFTLNPDKKTCRRINYCALNKPGCEHECVNMEESYYCRCHRGYTLDPNGKTCSRVDHCAQQDHGCEQLCLNTEDSFVCQCSEGFLINEDLKTCSRVDYCLLSDHGCEYSCVNMDRSFACQCPEGHVLRSDGKTCAKLDSCALGDHGCEHSCVSSEDSFVCQCFEGYILREDGKTCRRKDVCQAIDHGCEHICVNSDDSYTCECLEGFRLAEDGKRCRRKDVCKSTHHGCEHICVNNGNSYICKCSEGFVLAEDGRRCKKCTEGPIDLVFVIDGSKSLGEENFEVVKQFVTGIIDSLTISPKAARVGLLQYSTQVHTEFTLRNFNSAKDMKKAVAHMKYMGKGSMTGLALKHMFERSFTQGEGARPLSTRVPRAAIVFTDGRAQDDVSEWASKAKANGITMYAVGVGKAIEEELQEIASEPTNKHLFYAEDFSTMDEISEKLKKGICEALEDSDGRQDSPAGELPKTVQQPTESEPVTINIQDLLSCSNFAVQHRYLFEEDNLLRSTQKLSHSTKPSGSPLEEKHDQCKCENLIMFQNLANEEVRKLTQRLEEMTQRMEALENRLRYR									percentage of EdU-negative (MCF7; [1]): 29.2 ± 1.9%; percentage of EdU-negative (MCF7; [2]): 24.3 ± 0.75%; percentage of EdU-negative (hTERT-HMEC; [1]): 5.94 ± 0.34%; percentage of EdU-negative (hTERT-HMEC; [2]): 6.49 ± 0.6%
MELQPPEASIAVVSIPRQLPGSHSEAGVQGLSAGDDSELGSHCVAQTGLELLASGDPLPSASQNAEMIETGSDCVTQAGLQLLASSDPPALASKNAEVTGTMSQDTEVDMKEVELNELEPEKQPMNAASGAAMSLAGAEKNGLVKIKVAEDEAEAAAAAKFTGLSKEELLKVAGSPGWVRTRWALLLLFWLGWLGMLAGAVVIIVRAPRCRELPAQKWWHTGALYRIGDLQAFQGHGAGNLAGLKGRLDYLSSLKVKGLVLGPIHKNQKDDVAQTDLLQIDPNFGSKEDFDSLLQSAKKKSIRVILDLTPNYRGENSWFSTQVDTVATKVKDALEFWLQAGVDGFQVRDIENLKDASSFLAEWQNITKGFSEDRLLIAGTNSSDLQQILSLLESNKDLLLTSSYLSDSGSTGEHTKSLVTQYLNATGNRWCSWSLSQARLLTSFLPAQLLRLYQLMLFTLPGTPVFSYGDEIGLDAAALPGQPMEAPVMLWDESSFPDIPGAVSANMTVKGQSEDPGSLLSLFRRLSDQRSKERSLLHGDFHAFSAGPGLFSYIRHWDQNERFLVVLNFGDVGLSAGLQASDLPASASLPAKADLLLSTQPGREEGSPLELERLKLEPHEGLLLRFPYAA	23.1 ± 0.58	27.1 ± 0.54	5.08 ± 0.89	8.07 ± 1.1					
MELRARGWWLLCAAAALVACARGDPASKSRSCGEVRQIYGAKGFSLSDVPQAEISGEHLRICPQGYTCCTSEMEENLANRSHAELETALRDSSRVLQAMLATQLRSFDDHFQHLLNDSERTLQATFPGAFGELYTQNARAFRDLYSELRLYYRGANLHLEETLAEFWARLLERLFKQLHPQLLLPDDYLDCLGKQAEALRPFGEAPRELRLRATRAFVAARSFVQGLGVASDVVRKVAQVPLGPECSRAVMKLVYCAHCLGVPGARPCPDYCRNVLKGCLANQADLDAEWRNLLDSMVLITDKFWGTSGVESVIGSVHTWLAEAINALQDNRDTLTAKVIQGCGNPKVNPQGPGPEEKRRRGKLAPRERPPSGTLEKLVSEAKAQLRDVQDFWISLPGTLCSEKMALSTASDDRCWNGMARGRYLPEVMGDGLANQINNPEVEVDITKPDMTIRQQIMQLKIMTNRLRSAYNGNDVDFQDASDDGSGSGSGDGCLDDLCSRKVSRKSSSSRTPLTHALPGLSEQEGQKTSAASCPQPPTFLLPLLLFLALTVARPRWR	27.5 ± 0.42	28.9 ± 2.8	4.85 ± 0.34	28.7 ± 1.6					
MELWGAYLLLCLFSLLTQVTTEPPTQKPKKIVNAKKDVVNTKMFEELKSRLDTLAQEVALLKEQQALQTVCLKGTKVHMKCFLAFTQTKTFHEASEDCISRGGTLGTPQTGSENDALYEYLRQSVGNEAEIWLGLNDMAAEGTWVDMTGARIAYKNWETEITAQPDGGKTENCAVLSGAANGKWFDKRCRDQLPYICQFGIV									percentage of EdU-negative (MCF7; [5]): 23.3 ± 2.7%; percentage of EdU-negative (MCF7; [6]): 26.7 ± 0.6%; percentage of EdU-negative (hTERT-HMEC; [5]): 5.64 ± 0.21%; percentage of EdU-negative (hTERT-HMEC; [6]): 25.4 ± 5%
MEMFQGLLLLLLLSMGGTWASREMLRPRCRPINATLAVEKEGCPVCITVNTTICAGYCPTMTRVLQGVLPALPQVVCNYRDVRFESIRLPGCPRGVNPVVSYAVALSCQCALCRRSTTDCGGPKDHPLTCDDPRFQASSSSKAPPPSLPSPSRLPGPSDTPILPQ	24.4 ± 2.5	25 ± 1	5.61 ± 0.69	5.26 ± 0.82					
MEMLQGLLLLLLLSMGGAWASREPLRPWCHPINAILAVEKEGCPVCITVNTTICAGYCPTMMRVLQAVLPPLPQVVCTYRDVRFESIRLPGCPRGVDPVVSFPVALSCRCGPCRRSTSDCGGPKDHPLTCDHPQLSGLLFL	25.1 ± 1.9	25.5 ± 0.84	5.24 ± 1	5.19 ± 1					
MENPSPAAALGKALCALLLATLGAAGQPLGGESICSARALAKYSITFTGKWSQTAFPKQYPLFRPPAQWSSLLGAAHSSDYSMWRKNQYVSNGLRDFAERGEAWALMKEIEAAGEALQSVHAVFSAPAVPSGTGQTSAELEVQRRHSLVSFVVRIVPSPDWFVGVDSLDLCDGDRWREQAALDLYPYDAGTDSGFTFSSPNFATIPQDTVTEITSSSPSHPANSFYYPRLKALPPIARVTLVRLRQSPRAFIPPAPVLPSRDNEIVDSASVPETPLDCEVSLWSSWGLCGGHCGRLGTKSRTRYVRVQPANNGSPCPELEEEAECVPDNCV [Q9BUD6]									percentage of EdU-negative (MCF7; [7]): 23.8 ± 0.42%; percentage of EdU-negative (MCF7; [8]): 26.9 ± 1.5%; percentage of EdU-negative (hTERT-HMEC; [7]): 4.15 ± 0.79%; percentage of EdU-negative (hTERT-HMEC; [8]): 7.892 ± 0.078%
MEPAAALHFSLPASLLLLLLLLLLSLCALVSAQFTVVGPANPILAMVGENTTLRCHLSPEKNAEDMEVRWFRSQFSPAVFVYKGGRERTEEQMEEYRGRITFVSKDINRGSVALVIHNVTAQENGIYRCYFQEGRSYDEAILRLVVAGLGSKPLIEIKAQEDGSIWLECISGGWYPEPLTVWRDPYGEVVPALKEVSIADADGLFMVTTAVIIRDKYVRNVSCSVNNTLLGQEKETVIFIPESFMPSASPWMVALAVILTASPWMVSMTVILAVFIIFMAVSICCIKKLQREKKILSGEKKVEQEEKEIAQQLQEELRWRRTFLHAADVVLDPDTAHPELFLSEDRRSVRRGPYRQRVPDNPERFDSQPCVLGWESFASGKHYWEVEVENVMVWTVGVCRHSVERKGEVLLIPQNGFWTLEMFGNQYRALSSPERILPLKESLCRVGVFLDYEAGDVSFYNMRDRSHIYTCPRSAFTVPVRPFFRLGSDDSPIFICPALTGASGVMVPEEGLKLHRVGTHQSL [Q8WVV5]					25.6 ± 3.6	27.8 ± 0.4	4.5399 ± 0.0037	8.99 ± 1.1	
MEPFTNDRLQLPRNMIENSMFEEEPDVVDLAKEPCLHPLEPDEVEYEPRGSRLLVRGLGEHEMEEDEEDYESSAKLLGMSFMNRSSGLRNSATGYRQSPDGACSVPSARTMVVCAFVIVVAVSVIMVIYLLPRCTFTKEGCHKKNQSIGLIQPFATNGKLFPWAQIRLPTAVVPLRYELSLHPNLTSMTFRGSVTISVQALQVTWNIILHSTGHNISRVTFMSAVSSQEKQAEILEYAYHGQIAIVAPEALLAGHNYTLKIEYSANISSSYYGFYGFSYTDESNEKKYFAATQFEPLAARSAFPCFDEPAFKATFIIKIIRDEQYTALSNMPKKSSVVLDDGLVQDEFSESVKMSTYLVAFIVGEMKNLSQDVNGTLVSIYAVPEKIGQVHYALETTVKLLEFFQNYFEIQYPLKKLDLVAIPDFEAGAMENWGLLTFREETLLYDSNTSSMADRKLVTKIIAHELAHQWFGNLVTMKWWNDLWLNEGFATFMEYFSLEKIFKELSSYEDFLDARFKTMKKDSLNSSHPISSSVQSSEQIEEMFDSLSYFKGSSLLLMLKTYLSEDVFQHAVVLYLHNHSYASIQSDDLWDSFNEVTNQTLDVKRMMKTWTLQKGFPLVTVQKKGKELFIQQERFFLNMKPEIQPSDTSYLWHIPLSYVTEGRNYSKYQSVSLLDKKSGVINLTEEVLWVKVNINMNGYYIVHYADDDWEALIHQLKINPYVLSDKDRANLINNIFELAGLGKVPLKRAFDLINYLGNENHTAPITEALFQTDLIYNLLEKLGYMDLASRLVTRVFKLLQNQIQQQTWTDEGTPSMRELRSALLEFACTHNLGNCSTTAMKLFDDWMASNGTQSLPTDVMTTVFKVGAKTDKGWSFLLGKYISIGSEAEKNKILEALASSEDVRKLYWLMKSSLNGDNFRTQKLSFIIRTVGRHFPGHLLAWDFVKENWNKLVQKFPLGSYTIQNIVAGSTYLFSTKTHLSEVQAFFENQSEATFRLRCVQEALEVIQLNIQWMEKNLKSLTWWL [Q9UIQ6]					26.9 ± 1.8	29.26 ± 0.17	4.48 ± 0.24	11.1 ± 0.58	
MEPLRLLILLFVTELSGAHNTTVFQGVAGQSLQVSCPYDSMKHWGRRKAWCRQLGEKGPCQRVVSTHNLWLLSFLRRWNGSTAITDDTLGGTLTITLRNLQPHDAGLYQCQSLHGSEADTLRKVLVEVLADPLDHRDAGDLWFPGESESFEDAHVEHSISRSLLEGEIPFPPTSILLLLACIFLIKILAASALWAAAWHGQKPGTHPPSELDCGHDPGYQLQTLPGLRDT [Q9NZC2]					23.6 ± 1.7	29.3 ± 2.9	5.63 ± 0.64	7.25 ± 1.5	
MEPPGDWGPPPWRSTPKTDVLRLVLYLTFLGAPCYAPALPSCKEDEYPVGSECCPKCSPGYRVKEACGELTGTVCEPCPPGTYIAHLNGLSKCLQCQMCDPAMGLRASRNCSRTENAVCGCSPGHFCIVQDGDHCAACRAYATSSPGQRVQKGGTESQDTLCQNCPPGTFSPNGTLEECQHQTKCSWLVTKAGAGTSSSHWVWWFLSGSLVIVIVCSTVGLIICVKRRKPRGDVVKVIVSVQRKRQEAEGEATVIEALQAPPDVTTVAVEETIPSFTGRSPNH [F6Q0M4]									percentage of EdU-negative (MCF7; [10]): 25.05 ± 0.09%; percentage of EdU-negative (MCF7; [11]): 27.5 ± 1.3%; percentage of EdU-negative (hTERT-HMEC; [10]): 5.28 ± 1.9%; percentage of EdU-negative (hTERT-HMEC; [11]): 6.34 ± 0.056%
MEPQLGPEAAALRPGWLALLLWVSALSCSFSLPASSLSSLVPQVRTSYNFGRTFLGLDKCNACIGTSICKKFFKEEIRSDNWLASHLGLPPDSLLSYPANYSDDSKIWRPVEIFRLVSKYQNEISDRRICASASAPKTCSIERVLRKTERFQKWLQAKRLTPDLVQGLASPLLRCPSQRLLDRVVRRYAEVADAGSIFMDHFTDRDKLRLLYTLAVNSHPILLQIFPGAEGWPLPKYLGSCGRFLVSTSTRPLQEFYDAPPDQAADLAYQLLGVLESLRSNDLNYFFYFTHIDAGMFGVFNNGHLFIRDASAVGVIDKQEGSQEANRAGENKDIFSCLVSGCQAQLPSCESISEKQSLVLVCQKLLPRLLQGRFPSPVQDDIDSILVQCGDSIRPDPEVLGAASQLKDILRPLRTCDSRFAYRYPDCKYNDKF [Q9H7Y0]					25.8 ± 2.1	25.3 ± 2	5.59 ± 0.064	5.31 ± 0.38	
